The results in this text go back to article PMC7144899.

The target in test [1] is His-AnaRneN (N-terminal catalytic domain of Anabaena RNase E) (Anabaena PCC 7120). Briefly: ITC. On the technique in general: In ITC the heat of successive injections is recorded.
Test [2] deals with AnaRne-GFP (RNase E tagged with GFP at the C-terminus, in situ) (Anabaena PCC 7120) (UniProt Q8YP69). The experiment in a line: FRET or BRET. Background: BRET reads energy transfer from a luciferase to a nearby fluorophore.
Sequence of UniProt Q8YP69 (Q8YP69 whole entry): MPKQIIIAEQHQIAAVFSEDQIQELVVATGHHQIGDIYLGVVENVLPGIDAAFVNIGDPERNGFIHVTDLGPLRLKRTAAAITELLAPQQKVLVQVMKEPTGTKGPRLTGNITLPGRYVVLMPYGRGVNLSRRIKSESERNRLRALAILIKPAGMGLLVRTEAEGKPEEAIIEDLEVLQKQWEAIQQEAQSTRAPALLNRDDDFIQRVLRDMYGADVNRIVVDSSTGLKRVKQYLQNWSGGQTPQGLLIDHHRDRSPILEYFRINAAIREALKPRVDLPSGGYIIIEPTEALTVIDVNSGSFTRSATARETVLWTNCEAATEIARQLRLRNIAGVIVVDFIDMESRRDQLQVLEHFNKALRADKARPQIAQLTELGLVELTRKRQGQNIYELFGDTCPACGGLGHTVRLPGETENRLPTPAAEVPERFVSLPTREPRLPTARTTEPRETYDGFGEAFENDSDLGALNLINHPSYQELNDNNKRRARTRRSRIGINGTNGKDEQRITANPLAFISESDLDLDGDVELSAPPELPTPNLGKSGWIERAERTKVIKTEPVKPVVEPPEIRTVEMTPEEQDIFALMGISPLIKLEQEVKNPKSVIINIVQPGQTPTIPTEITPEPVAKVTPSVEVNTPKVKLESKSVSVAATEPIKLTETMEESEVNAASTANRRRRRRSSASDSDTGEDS

The Kd is the constant that tells how readily two partners part at equilibrium. Low readings indicate tighter binding, high ones weaker binding. What is called stoichiometry N is the number of molecules, sites or subunits per partner or assembly. In test [1], “Alr1240-Strep (Alr1240 with a C-terminal Strep tag fusion) (enzyme)” had a dissociation constant (Kd) of 2770 nM and a stoichiometry N of 1.
Substance “AnaRnb-BFP (RNase II tagged with BFP at the C-terminus, in situ) (enzyme)” registered an FRET efficiency in test [2] of 0.7.
